{
  "source": "paper PMC5988928",
  "about": "“An alkaline and surfactant-tolerant lipase from Trichoderma lentiforme ACCC30425 with high application potential in the detergent industry” (AMB Express, 2018)",
  "experiment_in_all_cases": "purified protein",
  "assay_type_in_all_cases": "biochemical, Trichoderma sp.",
  "conditions_in_all_cases": "pH 9.5, 50 °C, 10 min, Tris-HCl",
  "key": {"[1]": {"substrate": "CCCCCCCCCCCC(=O)Oc1ccc([N+](=O)[O-])cc1"}, "[2]": {"substrate": "CCCCCCCCCC(=O)Oc1ccc([N+](=O)[O-])cc1"}, "[3]": {"substrate": "CCCC(=O)Oc1ccc([N+](=O)[O-])cc1"}, "[4]": {"substrate": "CCCCCCCCCCCCCCCC(=O)Oc1ccc([N+](=O)[O-])cc1"}, "[5]": {"substrate": "CCCCCCCC(=O)Oc1ccc([N+](=O)[O-])cc1"}, "[6]": {"substrate": "CCCCCCCCCCCCCC(=O)Oc1ccc([N+](=O)[O-])cc1"}},
  "data": [
    {"protein": "TlLipA (Trichoderma sp.) (protein, secreted from Pichia pastoris GS115 (pPIC9, alpha-factor signal), no tag told; N-terminus AQGQVNVTIP from primer) AQGQVNVTIPSGNIMGSSVEDVEFFKGIPFADPPIGELRFKPPQTLSTHLGDFDATKKAKLCSQGPVFTVSSNPQVAPFALKAERESFGNPVPPENESEDCLTVTIHRPAGTEAGDDLPVLFYIFGGGFVIGGTSAAINDPTVLVQTGIDLGKPFIFAAVNYRVGGWGFMPGAEILRDGSANAGLLDQRKGLEWVADNIAAFGGDPSKVTIWGQSSGSISVFEQLVLYDGDNTYNGNPLFRGAIMNSGSVTPVDPVDSAKPQALYDHVVRVANCEGDDSLDCLRRLPNDHFAAAANSIPGLISYESLALSYLPRPDGEVLTASPHVLAREGKFPAVPMILASQEDEGTLFSFFQGDMGTTDIITDYLNSLYFTNTDRSLVKSFVETYSERLEDGSPYRTGDSKDLFYYPGKKRIASILGDIVFTLVRRWTLETIAEVSPETALWSSFASYNYKPLDIFGLGTKHGSDTEVFFARNNSDFPSITGRTYYINFVYNGDPNEGLDVNVTWLGWKEDRQLLWYNATENGYLADNFRNGSYNFIKEHIDSLIF", "values": [
      {"measurement": "Km", "setting": "[1]", "result": "1590 ± 420", "unit": "µM"},
      {"measurement": "Vmax", "setting": "[1]", "result": 16.8, "unit": "µmol/min/mg"},
      {"measurement": "kcat", "setting": "[1]", "result": "16.8 ± 2.4", "unit": "s⁻¹"},
      {"measurement": "kcat/Km", "setting": "[1]", "result": 10600, "unit": "M⁻¹ s⁻¹"},
      {"measurement": "Km", "setting": "[2]", "result": "350 ± 70", "unit": "µM"},
      {"measurement": "Vmax", "setting": "[2]", "result": 12.5, "unit": "µmol/min/mg"},
      {"measurement": "kcat", "setting": "[2]", "result": "12.5 ± 0.7", "unit": "s⁻¹"},
      {"measurement": "kcat/Km", "setting": "[2]", "result": 35800, "unit": "M⁻¹ s⁻¹"},
      {"measurement": "Km", "setting": "[3]", "result": "400 ± 70", "unit": "µM"},
      {"measurement": "Vmax", "setting": "[3]", "result": 12.2, "unit": "µmol/min/mg"},
      {"measurement": "kcat", "setting": "[3]", "result": "12.2 ± 0.8", "unit": "s⁻¹"},
      {"measurement": "kcat/Km", "setting": "[3]", "result": 30700, "unit": "M⁻¹ s⁻¹"},
      {"measurement": "Km", "setting": "[4]", "result": "4220 ± 1280", "unit": "µM"},
      {"measurement": "Vmax", "setting": "[4]", "result": 4.8, "unit": "µmol/min/mg"},
      {"measurement": "kcat", "setting": "[4]", "result": "4.8 ± 1", "unit": "s⁻¹"},
      {"measurement": "kcat/Km", "setting": "[4]", "result": 1140, "unit": "M⁻¹ s⁻¹"},
      {"measurement": "Km", "setting": "[5]", "result": "670 ± 230", "unit": "µM"},
      {"measurement": "Vmax", "setting": "[5]", "result": 27.3, "unit": "µmol/min/mg"},
      {"measurement": "kcat", "setting": "[5]", "result": "27.4 ± 4.4", "unit": "s⁻¹"},
      {"measurement": "kcat/Km", "setting": "[5]", "result": 41000, "unit": "M⁻¹ s⁻¹"},
      {"measurement": "Km", "setting": "[6]", "result": "3290 ± 1210", "unit": "µM"},
      {"measurement": "Vmax", "setting": "[6]", "result": 4.3, "unit": "µmol/min/mg"},
      {"measurement": "kcat", "setting": "[6]", "result": "4.3 ± 1", "unit": "s⁻¹"},
      {"measurement": "kcat/Km", "setting": "[6]", "result": 1320, "unit": "M⁻¹ s⁻¹"}
    ]}
  ]
}
